{"source": "patent US20160222086", "key": {"[1]": {"system": "T1, thrombin-activated 40 K-PEG-[O]-rFVIII", "T1 sequence": "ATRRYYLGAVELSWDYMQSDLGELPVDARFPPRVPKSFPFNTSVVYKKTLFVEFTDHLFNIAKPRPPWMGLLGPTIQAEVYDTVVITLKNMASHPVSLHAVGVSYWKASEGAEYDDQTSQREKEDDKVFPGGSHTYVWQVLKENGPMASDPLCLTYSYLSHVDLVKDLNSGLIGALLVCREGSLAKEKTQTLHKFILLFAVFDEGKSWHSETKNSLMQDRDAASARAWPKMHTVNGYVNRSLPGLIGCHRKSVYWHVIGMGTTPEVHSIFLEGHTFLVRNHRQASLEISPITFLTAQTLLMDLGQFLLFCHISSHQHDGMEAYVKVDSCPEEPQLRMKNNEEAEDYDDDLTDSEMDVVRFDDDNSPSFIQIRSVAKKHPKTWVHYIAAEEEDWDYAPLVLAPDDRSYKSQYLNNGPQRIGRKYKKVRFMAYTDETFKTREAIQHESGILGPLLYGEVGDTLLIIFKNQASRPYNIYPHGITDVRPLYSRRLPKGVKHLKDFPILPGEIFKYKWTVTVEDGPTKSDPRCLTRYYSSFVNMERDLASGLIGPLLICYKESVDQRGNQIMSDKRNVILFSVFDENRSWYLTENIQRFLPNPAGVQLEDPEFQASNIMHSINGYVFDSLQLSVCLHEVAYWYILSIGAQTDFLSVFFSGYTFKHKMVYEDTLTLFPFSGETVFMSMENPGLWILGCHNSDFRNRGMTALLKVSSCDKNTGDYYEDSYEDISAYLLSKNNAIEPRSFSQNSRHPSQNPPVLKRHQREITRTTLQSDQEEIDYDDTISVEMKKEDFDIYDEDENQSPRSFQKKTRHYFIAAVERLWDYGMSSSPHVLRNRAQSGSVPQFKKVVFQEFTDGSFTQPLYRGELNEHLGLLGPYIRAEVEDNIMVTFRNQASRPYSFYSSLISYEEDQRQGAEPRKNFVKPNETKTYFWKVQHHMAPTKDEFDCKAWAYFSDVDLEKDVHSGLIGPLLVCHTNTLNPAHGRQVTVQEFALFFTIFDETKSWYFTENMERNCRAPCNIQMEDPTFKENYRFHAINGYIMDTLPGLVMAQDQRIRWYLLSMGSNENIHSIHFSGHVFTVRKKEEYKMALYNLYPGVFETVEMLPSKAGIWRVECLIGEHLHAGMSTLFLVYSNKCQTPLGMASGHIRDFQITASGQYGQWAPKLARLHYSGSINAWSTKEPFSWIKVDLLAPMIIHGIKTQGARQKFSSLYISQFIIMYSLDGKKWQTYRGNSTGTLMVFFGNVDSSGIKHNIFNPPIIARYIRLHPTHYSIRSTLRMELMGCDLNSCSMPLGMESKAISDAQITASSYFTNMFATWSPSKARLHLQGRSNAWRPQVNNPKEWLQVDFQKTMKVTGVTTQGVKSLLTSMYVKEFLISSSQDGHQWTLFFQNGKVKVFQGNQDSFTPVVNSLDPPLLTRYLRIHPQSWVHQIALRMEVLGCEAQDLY"}, "[2]": {"system": "T2, thrombin-activated 80 K-PEG-[O]-rFVIII", "T2 sequence": "T1 sequence"}, "[3]": {"system": "T3, thrombin-activated rFVIII (rFVIIIa), made from the recombinant B-domain truncated Factor VIII N8", "T3 sequence": "T1 sequence"}}}
{"substance": "FIXa", "values": [{"measurement": "K1/2FIXa", "setting": "[1]", "value": 0.42, "unit": "nM"}, {"measurement": "apparent Kd of rFVIIIa-FIXa interaction (K1/2FIXa)", "setting": "[1]", "value": "O-linked glycoPEGylation did not affect the apparent Kd of rFVIIIa-FIXa interaction (K1/2FIXa)"}, {"measurement": "K1/2FIXa", "setting": "[2]", "value": 1.11, "unit": "nM"}, {"measurement": "apparent Kd of rFVIIIa-FIXa interaction (K1/2FIXa)", "setting": "[2]", "value": "O-linked glycoPEGylation did not affect the apparent Kd of rFVIIIa-FIXa interaction (K1/2FIXa)"}, {"measurement": "K1/2FIXa", "setting": "[3]", "value": 0.88, "unit": "nM"}]}
